The results in this text go back to paper PMC3393671.

The chains are these.
B1: GST-Irga6, Q9QZ85 E110R; R111E (protein)
chain: MGQLFSSPKSDENNDLPSSFTGYFKKFNTGRKIISQEILNLIELRMRKGNIQLTNSAISDALKEIDSSVLNVAVTGETGSGKSSFINTLRGIGNEEEGAAKTGVVEVTMREHPYKHPNIPNVVFWDLPGIGSTNFPPNTYLEKMKFYEYDFFIIISATRFKKNDIDIAKAISMMKKEFYFVRTKVDSDITNEADGKPQTFDKEKVLQDIRLNCVNTFRENGIAEPPIFLLSNKNVCHYDFPVLMDKLISDLPIYKRHNFMVSLPNITDSVIEKKRQFLKQRIWLEGFAADLVNIIPSLTFLLDSDLETLKKSMKFYRTVFGVDETSLQRLARDWEIEVDQVEAMIKSPAVFKPTDEETIQERLSRYIQEFCLANGYLLPKNSFLKEIFYLKYYFLDMVTEDAKTLLKEICL
B2: GST-Irga6, Q9QZ85 I209R (protein)
chain: B1 chain with R110E, E111R, I209R
B3: GST-Irga6, Q9QZ85 G195R (protein)
chain: B1 chain with R110E, E111R, G195R
B4: GST-Irga6, Q9QZ85 E142R (protein)
chain: B1 chain with R110E, E111R, E142R
B5: GST-Irga6, Q9QZ85 N220R (protein)
chain: B1 chain with R110E, E111R, N220R
B6: GST-Irga6, Q9QZ85 T108D (protein)
chain: B1 chain with T108D, R110E, E111R
B7: GST-Irga6, Q9QZ85 P197H (protein)
chain: B1 chain with R110E, E111R, P197H
B8: GST-Irga6, Q9QZ85 R159E (protein)
chain: B1 chain with R110E, E111R, R159E
B9: GST-Irga6, Q9QZ85 T102D (protein)
chain: B1 chain with T102D, R110E, E111R
B10: GST-Irga6, Q9QZ85 S132R (protein)
chain: B1 chain with R110E, E111R, S132R
B11: GST-Irga6, Q9QZ85 E106R (protein)
chain: B1 chain with E106R, R110E, E111R
B12: GST-Irga6, Q9QZ85 C213R (protein)
chain: B1 chain with R110E, E111R, C213R
B13: GST-Irga6, Q9QZ85 E77A (protein)
chain: B1 chain with E77A, R110E, E111R
B14: GST-Irga6, Q9QZ85 K196D (protein)
chain: B1 chain with R110E, E111R, K196D
B15: GST-Irga6, Q9QZ85 N191R (protein)
chain: B1 chain with R110E, E111R, N191R
B16: GST-Irga6, Q9QZ85 K169E (protein)
chain: B1 chain with R110E, E111R, K169E
B17: GST-Irga6, Q9QZ85 G103R (protein)
chain: B1 chain with G103R, R110E, E111R
B18: GST-Irga6, Q9QZ85 K162E (protein)
chain: B1 chain with R110E, E111R, K162E
B19: GST-Irga6, Q9QZ85 V205R (protein)
chain: B1 chain with R110E, E111R, V205R
B20: GST-Irga6, Q9QZ85 N212R (protein)
chain: B1 chain with R110E, E111R, N212R
B21: GST-Irga6, Q9QZ85 M173W (protein)
chain: B1 chain with R110E, E111R, M173W
B22: GST-Irga6, Q9QZ85 T88R (protein)
chain: B1 chain with T88R, R110E, E111R
B23: GST-Irga6, Q9QZ85 Q198E (protein)
chain: B1 chain with R110E, E111R, Q198E
B24: GST-Irga6, Q9QZ85 K161E (protein)
chain: B1 chain with R110E, E111R, K161E
B25: GST-Irga6, Q9QZ85 K145E (protein)
chain: B1 chain with R110E, E111R, K145E

Substitutions are numbered along the chain they refer to. Names and notes keep the numbering of the source.

Sequence of ROP5 of T. gondii strain RH-YFP (isoforms not told apart), F2YGR7 (F2YGR7 25-549): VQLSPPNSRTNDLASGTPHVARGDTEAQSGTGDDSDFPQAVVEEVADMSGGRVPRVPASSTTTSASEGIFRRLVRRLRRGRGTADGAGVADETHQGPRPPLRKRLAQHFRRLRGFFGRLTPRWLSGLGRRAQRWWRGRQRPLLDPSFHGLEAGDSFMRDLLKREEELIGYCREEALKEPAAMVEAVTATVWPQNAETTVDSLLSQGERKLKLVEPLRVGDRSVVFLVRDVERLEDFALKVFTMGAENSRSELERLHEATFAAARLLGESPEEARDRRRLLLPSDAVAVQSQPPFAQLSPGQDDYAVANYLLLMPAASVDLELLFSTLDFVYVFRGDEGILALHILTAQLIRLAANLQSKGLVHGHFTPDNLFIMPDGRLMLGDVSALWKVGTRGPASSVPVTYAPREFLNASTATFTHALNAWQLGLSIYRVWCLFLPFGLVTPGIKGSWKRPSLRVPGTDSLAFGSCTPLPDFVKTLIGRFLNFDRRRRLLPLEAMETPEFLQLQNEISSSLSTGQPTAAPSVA

This test addresses ROP5 of T. gondii strain RH-YFP (isoforms not told apart), F2YGR7. Briefly: pull-down (quantitated Western blot). Particulars: chain shown with the change; 25 µg protein/100 µl 1:1 bead suspension; RH-YFP strain T. gondii lysates; 3E2 antibody (anti-ROP5); GST signal subtracted; parent: est. 100; read off a plot. (In western blotting, separated proteins are transferred to a membrane and probed.)
As for B1, the percent of parent (% of wild-type intensity) is 17.
For B2 the value was 5.
Then B3, with 6.5; and B4, with 73.
For B5 the value was 20; for B6, 77.
Regarding B7, the percent of parent (% of wild-type intensity) turned out to be 2.8.
As to B8, the percent of parent (% of wild-type intensity) stood at 5.5.
As to B9, the percent of parent (% of wild-type intensity) came to 110.
On to B10, for which the percent of parent (% of wild-type intensity) amounted to 45.
Take B11: the percent of parent (% of wild-type intensity) came out at 110.
With B12, the percent of parent (% of wild-type intensity) stood at 3.3.
Then B13, with 34; and B14, with 1.8; and B15, with 30.
For B16 the value was 22; for B17, 43.
For B18 the value was 3.5; for B19, 10; for B20, 2.7.
Consider B21, for which the percent of parent (% of wild-type intensity) amounted to 25.
On to B22, for which the percent of parent (% of wild-type intensity) amounted to 51.
Then B23, with 32; and B24, with 1.
As to B25, the percent of parent (% of wild-type intensity) amounted to 100.
